Assay results reported in patent US20230295345A1 (published 2023).

What was measured:
[1] = target: T1, mouse TMPRSS6 expressed on HEK293T cells (MoTMPRSS6-(His)6) (mouse, UniProt Q9DBI0 1-811); assay: cell surface ELISA on fixed HEK293T cells expressing mouse TMPRSS6
T1 construct: stably expressed in HEK293T cells; also called murine TMPRSS6
T1 sequence: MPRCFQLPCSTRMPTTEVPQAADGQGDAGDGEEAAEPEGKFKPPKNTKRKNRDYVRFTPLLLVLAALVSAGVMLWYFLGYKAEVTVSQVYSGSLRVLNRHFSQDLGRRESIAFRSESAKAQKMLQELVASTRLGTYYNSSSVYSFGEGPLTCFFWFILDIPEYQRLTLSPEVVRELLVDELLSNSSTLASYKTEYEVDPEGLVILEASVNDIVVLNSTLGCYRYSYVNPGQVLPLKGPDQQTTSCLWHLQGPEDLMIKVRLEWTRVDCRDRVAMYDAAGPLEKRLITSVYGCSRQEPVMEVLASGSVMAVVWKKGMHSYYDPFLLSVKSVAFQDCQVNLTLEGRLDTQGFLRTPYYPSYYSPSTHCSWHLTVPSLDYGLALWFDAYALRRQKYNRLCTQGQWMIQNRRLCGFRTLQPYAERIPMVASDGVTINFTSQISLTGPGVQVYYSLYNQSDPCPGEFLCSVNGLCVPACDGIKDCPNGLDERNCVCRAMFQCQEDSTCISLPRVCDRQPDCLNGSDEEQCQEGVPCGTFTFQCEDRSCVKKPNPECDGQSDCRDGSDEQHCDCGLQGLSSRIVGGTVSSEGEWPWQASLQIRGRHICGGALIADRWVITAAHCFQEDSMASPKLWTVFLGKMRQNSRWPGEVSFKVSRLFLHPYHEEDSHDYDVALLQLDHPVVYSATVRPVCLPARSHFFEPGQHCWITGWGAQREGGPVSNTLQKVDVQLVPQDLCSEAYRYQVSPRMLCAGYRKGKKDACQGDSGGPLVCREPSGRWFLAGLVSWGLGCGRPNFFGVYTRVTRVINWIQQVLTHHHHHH
Description: HEK293T cells stably expressing mouse TMPRSS6 (generated by LakePharma Inc as described above, FIGS. 4J, 4L, 4N, 4P, 4R, 4T) or cynomolgus monkey (generated in house as described above, FIGS. 4K, 4M, 4O, 4Q, 4S, 4U) were fixed with methanol (100%), and washed with dPBS (Dulbecco’s phosphate-buffered saline, Corning Cellgro) before incubation with various concentrations of anti-TMPRSS6 antibodies and their humanized variants diluted in BSA medium (DMEM + 1% Pen/Strep + 10 mM HEPES + 1 mg/ml BSA (Sigma-Aldrich)). Purified mouse IgG (FIGS. 4J-4O) or Human IgG1 (FIGS. 4P-4U) was used as a control. After incubation, cells were washed with BSA medium and then incubated with goat anti-mouse (Invitrogen, FIGS. 4J-4O) or anti-human (Millipore, FIGS. 4P-4U) IgG conjugated with HRP as a 2° antibody. Finally, cells were washed with dPBS to remove unbound antibody and color developed with ELISA liquid substrate (Sigma-Aldrich), followed by stopping the reaction with addition of the same volume of ELISA liquid substrate of 1 M H₂SO₄. Bound antibody was measured by absorbance at OD₄₅₀ₙₘ.

[2] = target: T1, mouse TMPRSS6 expressed on HEK293T …; assay: FACS on HEK293T cells stably expressing mouse TMPRSS6
Description: (§1) Selected anti-TMPRSS6 antibodies were tested to determine whether any are capable of binding to TMPRSS6 from mouse and/or cynomolgus monkey. HEK293T cells stably expressing human TMPRSS6 (HuTMPRSS6-(His)₆) (generated by LakePharma Inc as described above), HEK293T cells stably expressing mouse TMPRSS6 (MoTMPRSS6-(His)₆) (SEQ ID NO: 98) (generated by LakePharma Inc as described above) and HEK293T cells transiently expressing cynomolgus monkey TMPRSS6 (CynoTMPRSS6-(His)₆) (SEQ ID NO: 99) (generated in house) were collected. HEK293T cells stably expressing human TMPRSS6 were used as a positive control and HEK293T cells were used as a negative control (as described above). Cells were blocked with dPBS + 3% BSA before incubation with anti-TMPRSS6 antibodies diluted in dPBS + 3% BSA. After incubation, cells were washed with dPBS and followed by another incubation with goat anti-mouse IgG conjugated with AlexaFluor-488 as a 2° antibody (Invitrogen). At last, cells were washed with dPBS to remove unbound antibody, re-suspended with dPBS + 1 mM EDTA, and then subjected to FACS analysis using a NOVOCYTE® Flow Cytometer (ACEA Biosciences, Inc., San Diego CA). Bound antibody was determined by excitation at 488 nm and measurement of emission (FITC-A) at 530 nm. Results for these assays are shown in histogram plots in FIGS. 4A-4I.

[3] = target: T2, cynomolgus monkey TMPRSS6 expressed on HEK293T cells (CynoTMPRSS6-(His)6) (cynomolgus monkey, UniProt Q8IU80 10-811 (human entry)); assay: FACS on HEK293T cells transiently expressing cynomolgus monkey TMPRSS6
T2 chain: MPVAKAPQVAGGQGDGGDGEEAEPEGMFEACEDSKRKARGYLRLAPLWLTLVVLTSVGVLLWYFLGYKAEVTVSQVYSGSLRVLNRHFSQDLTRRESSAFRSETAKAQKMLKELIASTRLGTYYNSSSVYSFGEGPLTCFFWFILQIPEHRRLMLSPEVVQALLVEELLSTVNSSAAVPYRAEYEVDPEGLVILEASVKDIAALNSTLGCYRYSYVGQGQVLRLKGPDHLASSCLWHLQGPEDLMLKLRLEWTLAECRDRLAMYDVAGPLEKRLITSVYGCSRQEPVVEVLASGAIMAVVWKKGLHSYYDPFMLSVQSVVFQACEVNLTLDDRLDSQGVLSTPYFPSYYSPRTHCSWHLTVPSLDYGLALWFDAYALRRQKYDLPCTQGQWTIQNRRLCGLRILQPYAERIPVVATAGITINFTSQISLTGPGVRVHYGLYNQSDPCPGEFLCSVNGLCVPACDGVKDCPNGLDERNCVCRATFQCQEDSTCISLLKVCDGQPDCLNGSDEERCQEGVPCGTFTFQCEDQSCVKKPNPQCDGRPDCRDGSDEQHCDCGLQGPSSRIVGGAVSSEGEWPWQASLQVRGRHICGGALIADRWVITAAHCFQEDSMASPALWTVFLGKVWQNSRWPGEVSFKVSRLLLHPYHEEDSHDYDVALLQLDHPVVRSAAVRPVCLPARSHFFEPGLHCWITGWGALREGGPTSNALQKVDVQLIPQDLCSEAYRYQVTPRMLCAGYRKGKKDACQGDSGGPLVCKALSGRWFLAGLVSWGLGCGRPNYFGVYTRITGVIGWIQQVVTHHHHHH
Description: as §1

B1: MWTx-001 anti-TMPRSS6 antibody (antibody, mouse IgG2a, kappa, V domains shown)
VH: QVQLQQPGAELAKPGASVKMSCKASGYTFTSYWITWVKQRPGQDLEWIGNIYPGSGSTYYNEKFKSKATLTVDTSSRTAYMQLSSLTSADSAVYYCAPYDSDYAMDYWGQGTSVTVSS
VL: DIKMTQSPSSMYASLGERVTITCKASQDINNYLSWFQQKPGKSPKTLIYRANRLVDGVPSRVSGSGSGQDYSLTISSLEYEDVGIYFCLQYDEFPLTFGAGTKLELKR
notes: Mouse monoclonal antibody from a hybridoma (ATCC PTA-126759)
- binding result [1]: binds

B2: MWTx-002 anti-TMPRSS6 antibody (antibody, mouse IgG2b, kappa, V domains shown)
VH: EVQLQQSGAELVKPGASVKLSCTASGFNIKDYYIHWVKERTEQGLEWFGRIDPEDGESEYAPKFQGKATLTADTSSNTAYLQLSSLTSEDTAVYYCTRGDSMMVTYFDYWGQGTTLTVSS
VL: DIVMTQSHKFMSTSVGDRVSITCKASQDVSTAVAWYQQKPGQSPKLLIYWAFTRHTGVPDRFTSTGSGTDYALTISSVQAEDLALYYCQQHYRSPWTFGGGTKLEIKR
notes: Mouse monoclonal antibody from a hybridoma (ATCC PTA-126760)
- binding result [2]: no binding

B3: MWTx-003 anti-TMPRSS6 antibody (antibody, mouse IgG2b, kappa, V domains shown)
VH: EVQLQQSGAELVKPGASVKLSCTASGFNIEDYYIHWVKERTEQGLEWIGRIDPEDGETTYAPQFQGKATIIPDTSSNTAYMQLSSLTSEDAAVYYCARSIYLDPMDYWGQGTSVTVSS
VL: DIVMTQSHKFMSTSVGDRVSITCKASQDVTTAVAWYQQKPGQSPKILIYWATTRHTGVPDRFTGSISGTTYILTISSVQAEDLALYYCQQHYSTPYTFGGGTKLEIKR
notes: Mouse monoclonal antibody from a hybridoma (ATCC PTA-126761); also called r4K12B (recombinantly expressed version, same HC and LC)
- binding result [1]: binds
- binding result [3]: binds

B4: hzMWTx-001Var anti-TMPRSS6 antibody (antibody, human IgG1, kappa, N297A, V domains shown)
VH: EVQLVQSGAEVKKPGASVKVSCKASGYTFTSYWITWVRQAPGQRLEWIGNIYPGSGSTYYNEKFKSKATITRDTSSRTAYMELSSLRSEDTAVYYCAPYDADYAMDYWGQGTLVTVSS
VL: DIQMTQSPSSLSASVGDRVTITCKASQDISNYLSWFQQKPGKAPKLLIYRANRLVEGVPSRFSGSGSGTDFTLTISSLQPEDFATYFCLQYDEFPLTFGGGTKVEIKR
notes: Humanized variant of MWTx-001, human IgG1/kappa
- binding result [1]: binds

B5: hzMWTx-002Var anti-TMPRSS6 antibody (antibody, human IgG1, kappa, N297A, V domains shown)
VH: EVQLVQSGAEVKKPGASVKVSCKASGFNIKDYYIHWVRQATGQGLEWMGRIDPEDAESEYAPKFQGRVTITADTSTDTAYMELSSLRSEDTAVYYCTRGDSMMVTYFDYWGQGTLVTVSS
VL: DIQMTQSPSSLSASVGDRVTITCKASQDVSTAVAWYQQKPGKAPKLLIYWAFTRHTGVPSRFSGSGSGTDYALTISSLQPEDFATYYCQQHYRSPWTFGGGTKVEIKR
notes: Humanized variant of MWTx-002, human IgG1/kappa
- binding result [1]: no binding

B6: hzMWTx-003Var anti-TMPRSS6 antibody (antibody, human IgG1, kappa, L234A L235A, V domains shown)
VH: QVQLVQSGAEVKKPGASVKVSCKASGFNIEDYYMHWVRQAPGQRLEWMGRIDPEDAETTYSPKFQGRVTIIPDTSANTAYMELSSLRSEDTAVYYCARSIYLDPMDYWGQGTLVTVSS
VL: DIQMTQSPKSLSASVGDRVTITCRASQDVTTALAWYQQKPGQSPKLLIYWATTRHSGVPSRFSGSGSGTDFTLTISSLQPEDFATYYCQQHYSTPYTFGQGTKLEIKR
notes: Humanized variant of MWTx-003, human IgG1/kappa
- binding result [1]: binds
